From US20090196913A1, “Anti-Alpha-V Immunoliposome Composition, Methods, and Uses” (priority 2007, published 2009)

Target: murine αVβ3/5 integrin on the murine melanoma cell line B16-F10 (murine) (UniProt P43406)
Assay: cell-based or functional assay
Set-up: IC50 of doxorubicin, cell viability, murine melanoma B16-F10, integrin targeted liposome-entrapped dox 90:1: unit not given beside the values

murine αVβ3/5 integrin on the murine melanoma cell line B16-F10 (murine), sequence (P43406 31-1044): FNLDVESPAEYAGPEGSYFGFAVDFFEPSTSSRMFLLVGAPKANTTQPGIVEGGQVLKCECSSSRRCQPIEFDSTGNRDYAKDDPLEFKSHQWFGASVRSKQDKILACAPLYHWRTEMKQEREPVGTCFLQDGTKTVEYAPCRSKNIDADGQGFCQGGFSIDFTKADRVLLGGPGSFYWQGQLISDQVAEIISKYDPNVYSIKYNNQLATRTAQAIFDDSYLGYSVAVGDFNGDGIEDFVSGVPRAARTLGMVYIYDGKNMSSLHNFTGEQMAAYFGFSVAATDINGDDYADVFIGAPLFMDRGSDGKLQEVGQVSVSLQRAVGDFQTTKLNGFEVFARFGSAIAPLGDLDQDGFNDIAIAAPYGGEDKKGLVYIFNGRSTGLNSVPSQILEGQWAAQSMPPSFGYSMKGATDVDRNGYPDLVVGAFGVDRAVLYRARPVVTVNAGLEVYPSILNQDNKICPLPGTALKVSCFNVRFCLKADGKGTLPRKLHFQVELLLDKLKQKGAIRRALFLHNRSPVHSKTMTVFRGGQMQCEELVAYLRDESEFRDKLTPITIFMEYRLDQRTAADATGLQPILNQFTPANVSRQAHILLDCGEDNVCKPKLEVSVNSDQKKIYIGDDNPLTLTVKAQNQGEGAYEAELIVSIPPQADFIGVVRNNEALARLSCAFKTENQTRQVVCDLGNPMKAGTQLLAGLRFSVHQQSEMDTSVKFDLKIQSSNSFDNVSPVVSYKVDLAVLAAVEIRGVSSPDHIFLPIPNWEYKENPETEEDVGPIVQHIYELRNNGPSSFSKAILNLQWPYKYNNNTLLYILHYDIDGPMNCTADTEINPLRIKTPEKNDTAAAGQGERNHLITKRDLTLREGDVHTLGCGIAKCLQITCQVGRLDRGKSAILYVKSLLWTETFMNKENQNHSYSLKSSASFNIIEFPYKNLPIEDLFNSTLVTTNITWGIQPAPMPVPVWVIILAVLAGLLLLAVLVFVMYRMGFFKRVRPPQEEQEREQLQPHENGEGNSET

Substance: CNTO95 Fab′ (from pepsin cleavage, reduction and reoxidation) conjugated to PEG-DSPE on the surface of liposomes
- IC50 of doxorubicin, cell viability, murine melanoma B16-F10, integrin targeted liposome-entrapped dox 90:1: > 200
- Increase (ratio of IC50 of liposome-entrapped doxorubicin to IC50 of 90:1 integrin-targeted liposomes), murine melanoma B16-F10: 1
